Biological target: HIV-1 integrase Q214C/Q221C double mutant, in virions (HIV-1)
Assay: cross-linking

Substance: HIV-1 integrase Q214C/Q221C double mutant, in virions (enzyme)
- fold increase of the dimer percentage over WT: 3 fold
- stoichiometry N: 2

Reference: article PMC6775779
